Assay results published in publication doi:10.1101/2025.08.05.668721 (bioRxiv, 2025).
Blank lines part the entries; values can stand above or below the binder they belong to.

Columns and labels:
[1] = target: T1, FGL-1 Fibrinogen-like domain (FD), dimer, C-terminal Avi-tag, biotinylated (human), Q08830; assay: BLI
T1 chain: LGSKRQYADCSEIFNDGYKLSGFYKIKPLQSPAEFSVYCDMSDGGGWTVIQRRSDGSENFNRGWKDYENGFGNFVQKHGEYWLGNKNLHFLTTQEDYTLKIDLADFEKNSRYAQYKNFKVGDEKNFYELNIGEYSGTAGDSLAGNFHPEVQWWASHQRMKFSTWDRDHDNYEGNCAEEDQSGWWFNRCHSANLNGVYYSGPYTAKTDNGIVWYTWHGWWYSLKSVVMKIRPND

[2] = target: T2, FGL-1 Fibrinogen-like domain (FD), monomer, C-terminal Avi-tag, biotinylated (human), Q08830; assay: BLI
T2 chain: T1 chain

SEC = target: the molecule itself; assay: SEC
crystal structure = target: the molecule itself; assay: crystal structure

Kd [1]: 16.8 nM | Kd [2]: 740 nM
B1: LAG-3 (soluble analyte in BLI), P18627 23-450 (receptor)
chain: LQPGAEVPVVWAQEGAPAQLPCSPTIPLQDLSLLRRAGVTWQHQPDSGPPAAAPGHPLAPGPHPAAPSSWGPRPRRYTVLSVGPGGLRSGRLPLQPRVQLDERGRQRGDFSLWLRPARRADAGEYRAAVHLRDRALSCRLRLRLGQASMTASPPGSLRASDWVILNCSFSRPDRPASVHWFRNRGQGRVPVRESPHHHLAESFLFLPQVSPMDSGPWGCILTYRDGFNVSIMYNLTVLGLEPPTPLTVYAGAGSRVGLPCRLPAGVGTRSFLTAKWTPPGGGPDLLVTGDNGDFTLRLEDVSQAQAGTYTCHIHLQEQQLNATVTLAIITVTPKSFGSPGSLGKLLCEVTPVSGQERFVWSSLDTPSQRSFSGPWLEAQEAQLLSQPWQCQLYQGERLLGAAVYFTELSSPGAQRSGRAPGALPAGHL
modifications: not checked

B2: FGL-1 Fibrinogen-like domain (FD), dimer, C-terminal Avi-tag, biotinylated (domain or fragment, human, UniProt Q08830 74-306, looked up)
chain: T1 chain
modifications: biotin on the Avi-tag (BirA)
stoichiometry N (SEC): 2

B3: FGL-1 FD dimer (without Avi-tag) (domain or fragment, human, UniProt Q08830 74-306, looked up)
chain: T1 chain
binding result (crystal structure): binds
